# Test results: patent publication US20170166649A1 (MAX DELBR CK CENTRUM F R MOLEKULARE MEDIZIN IN DER …, published 2017)
# T1: human CD269 (BCMA) on human multiple myeloma cells (MM.1S, RPMI-8226) (human, UniProt Q02223 1-184)
# T1 construct: whole, on cells; also called BCMA-positive MM.1S cells; CD269-positive MM.1S cells
# T1 sequence (looked up): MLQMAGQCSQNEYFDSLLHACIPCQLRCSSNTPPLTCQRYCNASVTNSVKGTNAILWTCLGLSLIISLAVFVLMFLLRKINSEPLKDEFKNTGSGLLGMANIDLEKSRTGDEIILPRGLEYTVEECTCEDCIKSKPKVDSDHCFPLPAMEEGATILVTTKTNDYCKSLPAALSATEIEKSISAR
# T2: extracellular domain of human CD269 (BCMA, TNFRSF17) (human, UniProt Q02223 4-54)
# T2 construct: also called hBCMA; human BCMA
# T2 sequence: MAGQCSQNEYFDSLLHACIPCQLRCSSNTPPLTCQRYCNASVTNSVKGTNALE
# Experiments:
# [1] = target: T1, human CD269 (BCMA) on human multiple …; assay: flow cytometry on MM.1S cells
# [2] = target: T2, extracellular domain of human CD269 …; assay: ELISA of hybridoma J22.9 supernatant on BCMA-coated microtiter plates at the given days of culture
# [3] = target: T2, extracellular domain of human CD269 …; assay: complex isolated by size exclusion chromatography and crystallised
# Experimental: (Fab)₂ fragments were generated from full length J22.9-xi IgG by incubation with pepsin. J22.9-xi was passed over a PD-10 buffer exchange column into 50 mM sodium acetate, pH 3.5 and pepsin added at 30 μg per milligram J22.9-xi. Incubation at 37° C. for 2.5 hours was sufficient to completely digest the fragment crystallizable (Fc) region and pepsin was inactivated by exchange over a PD-10 column into PBS (pH 7.2). The reduction of the (Fab)₂ fragments to individual Fabs was accomplished in PBS by addition of 2-Mercaptoethylamine (50 mM) in the presence of 5 mM ethylenediaminetetraacetic acid (EDTA). After incubation for 90 minutes at 37° C., the reduced cysteines were blocked by alkylation with 500 μM iodoacetamide for 30 minutes followed by buffer exchange into fresh PBS. The Fab fragments were combined with 1.5 molar equivalents of purified BCMA and the complexes isolated by size exclusion chromatography on a Superdex 75 16/60 column.
# Concentrated complexes were supplemented with 0.5 molar equivalents of pure BCMA to ensure saturation and were subjected to crystallization screening. Initial Fab:BCMA crystallization conditions were identified from commercial screens (Qiagen) in 96-well sitting drop format plates using a Gryphon pipetting robot (200 nl drops) and optimized in 24 well plates in hanging drops (2-3 ul). […]
# [4] = target: T2, extracellular domain of human CD269 …; assay: SPR; mean Kd of FIG. 1c, initial SPR characterisation (not the n = 3 series of Table 6)
# [5] = target: T2, extracellular domain of human CD269 …; assay: SPR, value printed beside the trace for 10.0 nM BCMA; neither a quantity name nor a unit is printed, and the five values average to the mean Kd of 54 pM of paragraph 196
# [6] = target: T2, extracellular domain of human CD269 …; assay: SPR, value printed beside the trace for 90.0 nM BCMA; neither a quantity name nor a unit is printed, and the five values average to the mean Kd of 54 pM of paragraph 196
# [7] = target: T2, extracellular domain of human CD269 …; assay: ELISA on plates coated with human BCMA (1 ug/ml), % of max
# Experimental: (§1) ELISA was carried out as described herein using BCMA-coated microtiter plates (1 microg/ml).
# (§2) Microtiter plates were coated with 1 μg/ml of the extracellular domain of human or cynomolgous BCMA (hBCMA or cyBCMA, respectively). Coated BCMA was detected with serial dilution of J22.9-xi, J22.9-H, J22.9-ISY and J22.9-FSY ranging from 0.26 pM to 500 nM. Binding of antibodies to the coated BCMA was detected with horseradish peroxidase (HRP)-conjugated goat anti-human secondary antibody (Jackson ImmunoResearch, 109-035-098, dilution 1:5,000).
# [8] = target: T2, extracellular domain of human CD269 …; assay: SPR, value printed beside the trace for 3.3 nM BCMA; neither a quantity name nor a unit is printed, and the five values average to the mean Kd of 54 pM of paragraph 196
# [9] = target: T3, extracellular domain of cynomolgous BCMA (cynomolgus, UniProt A0A2K5UD97 1-53); assay: SPR, IgG immobilised, cynomolgus BCMA in mobile phase (n = 2)
# T3 construct: extracellular domain; also called cyBCMA; cynoBCMA
# T3 sequence (A0A2K5UD97 entry or part of it): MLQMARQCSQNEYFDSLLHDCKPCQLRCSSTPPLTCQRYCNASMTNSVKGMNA
# Experimental: (§3) FIG. 12: SPR raw data: Binding affinities of the chimeric J22.9-xi and humanized variants to human (A) and cynomolgus (B) BCMA was measured by Surface Plasmon Resonance (SPR) Spectrometry. IgGs were immobilized via amine chemistry to a Proteon GLH sensor chip and binding measured with BCMA in the mobile phase. The order of raw data traces in the graph corresponds to the order to samples listed in the legend of the figure.
# (§4) SPR was performed on a ProteonXPR36 using phosphate buffered saline supplemented with 0.005% Tween-20 (PBST). Whole IgG at a concentration of 15 ug/ml was immobilized to a Proteon GLH sensor chip using standard amine chemistry according to the manufacturer's instructions. For binding experiments, human or cynomolgus BCMA in PBST was used as the mobile phase.
# [10] = target: T2, extracellular domain of human CD269 …; assay: SPR, IgG immobilised, human BCMA in mobile phase (n = 3)
# Experimental: as §3, §4
# [11] = target: T3, extracellular domain of cynomolgous BCMA; assay: ELISA on plates coated with cynomolgus BCMA (1 ug/ml), % of max
# Experimental: as §1, §2
# [12] = target: T2, extracellular domain of human CD269 …; assay: SPR, value printed beside the trace for 30.0 nM BCMA; neither a quantity name nor a unit is printed, and the five values average to the mean Kd of 54 pM of paragraph 196
# [13] = target: T2, extracellular domain of human CD269 …; assay: SPR, value printed beside the trace for 1.1 nM BCMA; neither a quantity name nor a unit is printed, and the five values average to the mean Kd of 54 pM of paragraph 196
binder,measurement,setting,value
"J22.9-xi-N-glycan (deglycosylated J22.9-xi) (antibody, human IgG1, V domains shown, N-linked oligosaccharide chains at Asn297 of the heavy chain removed with PNGase F, also called J22.9-xi without N-glycans) VH: QVQLQQSGGGLVQPGGSLKLSCAASGIDFSRYWMSWVRRAPGKGLEWIGEINPDSSTINYAPSLKDKFIISRDNAKNTLYLQMSKVRSEDTALYYCASLYYDYGDAMDYWGQGTSVTVSS VL: DIVMTQSQRFMTTSVGDRVSVTCKASQSVDSNVAWYQQKPRQSPKALIFSASLRFSGVPARFTGSGSGTDFTLTISNLQSEDLAEYFCQQYNNYPLTFGAGTKLELKR",binding result,[1],binds
"antibody in the supernatant of mouse hybridoma J22.9 (antibody, V domains shown, Mouse antibody; also called hybridoma J22.9 supernatant) VH: QVQLQQSGGGLVQPGGSLKLSCAASGIDFSRYWMSWVRRAPGKGLEWIGEINPDSSTINYAPSLKDKFIISRDNAKNTLYLQMSKVRSEDTALYYCASLYYDYGDAMDYWGQGTSVTVSS VL: DIVMTQSQRFMTTSVGDRVSVTCKASQSVDSNVAWYQQKPRQSPKALIFSASLRFSGVPARFTGSGSGTDFTLTISNLQSEDLAEYFCQQYNNYPLTFGAGTKLELKR",binding result,[2],binds
"Fab fragment prepared from J22.9-xi (Fab, V domains shown, reduced cysteines blocked by alkylation with iodoacetamide, also called J22.9-xi Fab) VH: QVQLQQSGGGLVQPGGSLKLSCAASGIDFSRYWMSWVRRAPGKGLEWIGEINPDSSTINYAPSLKDKFIISRDNAKNTLYLQMSKVRSEDTALYYCASLYYDYGDAMDYWGQGTSVTVSS VL: DIVMTQSQRFMTTSVGDRVSVTCKASQSVDSNVAWYQQKPRQSPKALIFSASLRFSGVPARFTGSGSGTDFTLTISNLQSEDLAEYFCQQYNNYPLTFGAGTKLELKR",binding result,[3],binds
"chimeric antibody J22.9-xi (antibody, V domains shown, Full length IgG made in 293-6E cells) VH: QVQLQQSGGGLVQPGGSLKLSCAASGIDFSRYWMSWVRRAPGKGLEWIGEINPDSSTINYAPSLKDKFIISRDNAKNTLYLQMSKVRSEDTALYYCASLYYDYGDAMDYWGQGTSVTVSS VL: DIVMTQSQRFMTTSVGDRVSVTCKASQSVDSNVAWYQQKPRQSPKALIFSASLRFSGVPARFTGSGSGTDFTLTISNLQSEDLAEYFCQQYNNYPLTFGAGTKLELKR",Kd,[4],0.054 nM
same,Kd,[5],0.0555 nM
same,Kd,[6],0.088 nM
same,EC50 (read off the curve),[7],~0.2 nM
same,Kd,[8],0.0362 nM
same,Kd,[9],2.7 nM
same,Kd,[10],0.28 nM
same,EC50 (read off the curve),[11],~0.2 nM
same,Kd,[12],0.0695 nM
same,Kd,[13],0.021 nM
